This note sets out measurements from paper PMC4894640.

The target in the assay is F-actin (polymerized non-muscle actin) (UniProt P60709). Put plainly: co-sedimentation; as the F-actin co-sedimentation, with in vitro synthesized HA-RAB-10(Q68L) (control: HA-only) added to the mixture.

Consider “GST-EHBP-1(260-901aa) (domain or fragment)”, for which the increase of co-sedimentation with HA-RAB-10(Q68L) against without amounted to 67%.
